According to patent US20230203482A1, “Methods of Rescuing Stop Codons via Genetic Reassignment with ACE-tRNA” (THE WISTAR INSTITUTE OF ANATOMY AND BIOLOGY, priority 2017, published 2023):
Entries after “also recorded” stand apart in the source; their conditions may differ.

Assays:
CFTR W1282X = assay: Two-electrode voltage clamp of CFTR W1282X in Xenopus laevis oocytes; format: cell-based, human
Method: (§1) In vitro cRNA transcription. G542XUGA, W1282XUGA, and WT CFTR pGEMHE (Mense et al., 2006; PMID:1703051) plasmids were linearized by 10× excess of NheI-HF restriction enzyme (site positioned 3′ of coding region)(New England BioLabs, USA) for 3 hours at 37° C. and purified using standard cDNA precipition methods. All cRNAs were transcribed using the mMessage mMachine T7 Kit (ThermoFisher Scientific; USA). Purification of the cRNA from the transcription reaction was conducted on columns from the RNeasy Mini Kit (Qiagen, Germany). Concentration was determined by absorbance measurements at 260 nm and quality was confirmed on a 1% agarose gel (RNase-free). All cRNA was queued to […] before use and all results were generated from ≥2 cRNA preparations.
(§2) In vitro tRNA transcription. […] Equimolar concentration of T7 oligo (5)-taatacgactcactata-3′) was annealed to ACE-tRNA PAGE-purified Ultramers (20 ug; Integrated DNA Technologies, Coralville, Iowa) coding for the ACE-tRNA and preceded by a T7 promoter (italics). Importantly, the three terminal nucleotides containing CCA were included (bold).
The total reaction volume was adjusted to 100 μl and the kit reagents were added in the following amounts: 10 μl of 10X T7-Scribe transcription buffer, 7.5 μl of each nucleotide (100 mM stocks), 10 μl of 100 mM Dithiothreitol, 2.5 μl ScriptGuard RNase Inhibitor, 10 μl T7-Scribe enzyme solution. After the reaction was incubated for 4-5 hours at 37° C., the DNA template was digested with 5 μl DNase (1 U/μl) provided with the kit for 30-60 min. The ACE-tRNA was extracted from the reaction with acidic phenol chloroform (5:1, pH 4.5) and precipitated with ethanol. […]
(§3) Two-electrode voltage clamp (TEVC) recordings. CFTR Cl^− currents were recorded in ND96 bath solution that contained (in mM): 96 NaCl, 2 KCl, 1 MgCl2, and 5 HEPES (pH 7.5) in the presence of a maximal CFTR activation cocktail, forskolin ([…]; adenylate cyclase activator) and 3-isobutyl-1-methylxanthine (1 mM; phosphodiesterase inhibitor). […]

CFTR G542X = assay: Two-electrode voltage clamp of CFTR G542X in Xenopus laevis oocytes; format: cell-based, human; settings: for rescued CFTR current relative to WT CFTR: compared to WT CFTR cRNA 25 ng
Method: as §1, §2
The total reaction volume was adjusted to 100 μl and the kit reagents were added in the following amounts: 10 μl of 10X T7-Scribe transcription buffer, 7.5 μl of each nucleotide (100 mM stocks), 10 μl of 100 mM Dithiothreitol, 2.5 μl ScriptGuard RNase Inhibitor, 10 μl T7-Scribe enzyme solution. After the reaction was incubated for 4-5 hours at 37° C., the DNA template was digested with 5 μl DNase (1 U/μl) provided with the kit for 30-60 min. The ACE-tRNA was extracted from the reaction with acidic phenol chloroform (5:1, pH 4.5) and precipitated with ethanol. The precipitates ACE-tRNA was pelleted, washed, dried and resuspended in 100 μl DEPC-treated water and further purified with Chrorna Spin-30 columns (Clontech, USA). The procedure yielded roughly 100 μl of ˜5 μg/μl ACE-tRNA. ACE-tRNAs were re-pelleted in 20 ug aliquots, washed, lyophilized and stored at −80° C. until use. All results were generated from ≥2 ACE-tRNA preparations.
Expression in Xenopus laevis oocytes. Xenopus laevis oocytes (stage V and VI) were purchased from Ecocyte (Austin, Tex.). Prior to injection, each ACE-tRNA pellet was resuspended in 2 μl of ddH2O and debris was pelleted at 21,000×g, 4° C. for 25 min. […]
as §3

Molecule	Hill coefficient (CFTR W1282X; W1282X dose response)	CFTR chloride conductance, suppression of UGA PTC (CFTR W1282X; W1282X, 200 ng ACE-tRNA co-injected, forskolin and IBMX)	rescued CFTR current relative to WT CFTR (CFTR W1282X; W1282X, compared to WT CFTR cRNA 25 ng) [%]	Hill coefficient (CFTR G542X; G542X dose response)	CFTR chloride conductance, suppression of UGA PTC (CFTR G542X; G542X, 200 ng ACE-tRNA co-injected, forskolin and IBMX)	rescued CFTR current relative to WT CFTR (CFTR G542X; G542X)	rescued CFTR current relative to WT CFTR (CFTR G542X; G542X, listed as ACE-tRNAGly)
Trpchr17.trna39: top performing tryptophan ACE-tRNA UGA suppressor, SEQ ID NO: 48	1.24	highly efficacious	~50	–	–	–	–
Glychr19.trna2: top performing glycine ACE-tRNA UGA suppressor, SEQ ID NO: 53 (nucleic acid, chemistry not fully specified) GCGTTGGTGGTATAGTGGTTAGCATAGCTGCCTTCAAAGCAGTTGACCCGGGTTCGATTCCCGGCCAACGCA	–	–	–	~1.4	highly efficacious	WT-like current levels of expression	clear saturation at WT CFTR levels; also recorded: achieves WT-level of expressed CFTR current
